Data published in US20020045564A1, “Methods of modulating muscle contraction” (priority 1997, published 2002).

T1: cardiac LC20 (Homo sapiens, UniProt P10916)
T1 construct: using isolated cardiac myofibrils and associated proteins; from tissue
T1 sequence (P10916 1-166): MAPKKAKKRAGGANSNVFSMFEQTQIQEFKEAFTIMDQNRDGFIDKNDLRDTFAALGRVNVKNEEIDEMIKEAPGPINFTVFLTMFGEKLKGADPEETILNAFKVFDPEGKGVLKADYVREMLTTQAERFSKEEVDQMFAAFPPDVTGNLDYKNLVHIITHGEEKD

B1: PAK-phosphorylated caldesmon: caldesmon phosphorylated by PAK (protein, UniProt P12957 1-771, looked up)
Caldesmon: MDDFERRRELRRQKREEMRLEAERLSYQRNDDDEEEAARERRRRARQERLRQKEEGDVSGEVTEKSEVNAQNSVAEEETKRSTDDEAALLERLARREERRQKRLQEALERQKEFDPTITDGSLSVPSRREVNNVEENEITGKEEKVETRQGRCEIEETETVTKSYQRNNWRQDGEEEGKKEEKDSEEEKPKEVPTEENQVDVAVEKSTDKEEVVETKTLAVNAENDTNAMLEGEQSITDAADKEKEEAEKEREKLEAEEKERLKAEEEKKAAEEKQKAEEEKKAAEERERAKAEEEKRAAEERERAKAEEERKAAEERERAKAEEERKAAEERAKAEEERKAAEERAKAEEERKAAEERAKAEKERKAAEERERAKAEEEKRAAEEKARLEAEKLKEKKKMEEKKAQEEKAQANLLRKQEEDKEAKVEAKKESLPEKLQPTSKKDQVKDNKDKEKAPKEEMKSVWDRKRGVPEQKAQNGERELTTPKLKSTENAFGRSNLKGAANAEAGSEKLKEKQQEAAVELDELKKRREERRKILEEEEQKKKQEEAERKIREEEEKKRMKEEIERRRAEAAEKRQKVPEDGVSEEKKPFKCFSPKGSSLKIEERAEFLNKSAQKSGMKPAHTTAVVSKIDSRLEQYTSAVVGNKAAKPAKPAASDLPVPAEGVRNIKSMWEKGNVFSSPGGTGTPNKETAGLKVGVSSRINEWLTKTPEGNKSPAPKPSDLRPGDVSGKRNLWEKQSVEKPAASSSKVTATGKKSETNGLRQFEKEP
modifications: phosphorylated by PAK
B2: caldesmon: unphosphorylated smooth muscle caldesmon purified from chicken gizzard (protein, UniProt P12957 1-771, looked up)
Caldesmon: B1 Caldesmon

Key:
[1] = target: T1, cardiac LC20; experiment: In vitro phosphorylation of cardiac LC20; format: biochemical
Description: In vitro phosphorylation of intact smooth, skeletal, cardiac, platelet, and Dictyostelium myosin and isolated LC20, caldesmon, and caldesmon fragments, and cardiac and skeletal Tn were carried out at 25° C. in 10 mM Tris, pH 7.0, 50 mM sodium chloride, 1 mM [γ^32P]ATP (5×10^5 cpm per nmol) or at 37° C. in the same buffer except containing 150 mM sodium chloride. Aliquots of the reaction mixture were analyzed for protein phosphorylation using Whatman P81 paper and SDS-gel electrophoresis/autoradiography as previously described (Childs, T. J. et al. 1992. J. Biol. Chem. 267:22853-22859). In the case of cardiac and skeletal Tn, the three Tn subunits (TnI, TnT, and TnC) were separated by reversed phase HPLC. The individual subunits were analyzed for incorporation of ^32P (i.e., phosphorylation by PAK) by SDS-PAGE and autoradiography and direct counting.
Phosphorylated amino acids were identified by thin-layer electrophoresis after partial hydrolysis of the phosphorylated proteins in 6 N hydrochloric acid as previously described (Childs, T. J. et al. 1992. J. Biol. Chem. 267:22853-22859; Mak, A. S. et al. 1991. J. Biol. Chem. 266:19971-19975; Mak, A. S. et al. 1991. J. Biol. Chem. 266:6678-6681). […]

[2] = system: actin-tropomyosin; experiment: Actin-tropomyosin binding assay (centrifugation); conditions: FIG. 5
Description: To quantitate the amount of smooth muscle caldesmon and smooth muscle tropomyosin bound to the skeletal actin thin filament (>95% amino acid homology to smooth muscle actin), centrifugation studies were carried out in binding buffer consisting of 20 mM Tris-HCl pH 7.2, 10 mM KCl, 5 mM MgCl2 and 1 mM DTT. The concentration of actin was 5 nmole/200 μl (˜25 μM) and the mole ratio of actin to tropomyosin was 7:2. Increasing quantities of unphosphorylated or phosphorylated caldesmon were added to the actin-tropomyosin mixture. Protein concentrations were determined by the Lowry method or by absorbance at 280 nm. Samples were spun for 30 min at approximately 95,000 rpm, resulting in the pelleting of over 95% of the actin. The obtained pellets were dissolved in 100 μl of 0.05% aqueous trifluroacetic acid (TFA) and injected on a Zorbax C8 SB300 reversed-phase column (4.6 mm×250 mm) on a Varian HPLC system (Star series). The various proteins were eluted using a 2% B/min linear A/B gradient with a 5 min initial isocratic hold, where solvent A is 0.05% aqueous TFA and solvent B is 0.05% TFA in acetonitrile. The flow rate was 1 ml/min. The peak areas were determined at 210 nm and converted to nanomoles using a standard curve obtained for each protein. […] The experiments were done in triplicate and the standard deviation calculated.

[3] = target: smooth muscle myosin ATPase (Gallus gallus, UniProt P02607+P10587); experiment: Actin-tropomyosin activated ATPase activity of smooth muscle subfragment 1 (S1); format: biochemical; conditions: FIG. 6
smooth muscle myosin ATPase, sequence (P10587 84-789 limits assumed): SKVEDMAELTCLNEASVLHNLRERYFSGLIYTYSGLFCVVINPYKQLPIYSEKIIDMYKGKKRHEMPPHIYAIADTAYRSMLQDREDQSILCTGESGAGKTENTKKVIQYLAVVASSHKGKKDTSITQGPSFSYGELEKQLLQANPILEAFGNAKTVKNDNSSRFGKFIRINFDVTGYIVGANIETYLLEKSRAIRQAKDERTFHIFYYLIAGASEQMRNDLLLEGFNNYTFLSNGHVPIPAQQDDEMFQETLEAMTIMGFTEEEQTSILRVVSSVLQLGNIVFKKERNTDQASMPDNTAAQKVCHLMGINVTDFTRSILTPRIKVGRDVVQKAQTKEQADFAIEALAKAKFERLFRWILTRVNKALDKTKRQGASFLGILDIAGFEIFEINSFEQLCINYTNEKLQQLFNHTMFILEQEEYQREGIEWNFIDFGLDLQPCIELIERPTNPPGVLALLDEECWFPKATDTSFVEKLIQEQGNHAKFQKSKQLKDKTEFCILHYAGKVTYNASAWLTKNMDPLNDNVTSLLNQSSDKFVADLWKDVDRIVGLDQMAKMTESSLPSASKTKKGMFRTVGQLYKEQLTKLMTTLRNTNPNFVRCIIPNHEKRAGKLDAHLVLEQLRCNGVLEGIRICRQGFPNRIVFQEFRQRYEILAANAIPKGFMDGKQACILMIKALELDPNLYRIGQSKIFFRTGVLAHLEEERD
smooth muscle myosin ATPase, sequence (P02607 2-151 limits assumed): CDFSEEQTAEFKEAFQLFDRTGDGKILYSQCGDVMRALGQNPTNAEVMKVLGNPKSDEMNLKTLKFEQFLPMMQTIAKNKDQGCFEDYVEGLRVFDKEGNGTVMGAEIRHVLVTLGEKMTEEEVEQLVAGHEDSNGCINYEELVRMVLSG
Description: Reactions consisted of 10 μM actin, 2 μM tropomyosin, 0.5 μM S1, and variable concentrations of unphosphorylated and phosphorylated caldesmon. The buffer contained 40 mM Tris-HCl pH 7.8, 50 mM KCl, 5 mM MgCl2, 1 mM DTT at 37° C. Reactions were performed in a 96 well microtitre plate, triggered by the addition of 4 mM ATP. The phosphate assay was performed according to the method of Chifflet, S. et al. 1988. (Anal. Biochem. 168:1-4). Briefly, reactions were terminated by the addition of an equal volume (100 μL) of reagent which contained 6% (w/v) SDS, 3% (w/v) ascorbic acid, 1M HCl, 0.5% (w/v) ammonium molybdate. The mixture was incubated for 5 minutes prior to the addition of a second reagent which contained 2% sodium citrate, 2% sodium m-arsenite, and 2% acetic acid. Blue colour developed quickly over 5 minutes. Microtitre plates were read at 650 nm on an E-max ELISA plate reader (Molecular Dynamics, Sunnyvale Calif.). Phosphate was determined by comparing experimental values to standard phosphate values obtained through dilution of phosphate-buffered saline (PBS).

Row | Molecule | phosphorylation of cardiac LC20 [1] | change in affinity of caldesmon for actin(-tropomyosin), phosphorylated vs unphosphorylated [2] | inhibition of smooth muscle myosin ATPase activity [3]
1 | MLCK: myosin light chain kinase purified from chicken gizzard | 0.2 mol phosphate per mol protein | – | –
2 | B1 | – | approximately two-fold reduction | inhibition was clearly released
3 | B2 | – | – | inhibited
